Data published in patent US20220289837A1, “Cystic Fibrosis Transmembrane Conductance Regulator Stabilizing Agents” (VIB VZW, priority 2019, published 2022).

How the values were obtained:
[1] = biological target: T1, F508del-CFTR (Homo sapiens, UniProt P13569, DEL508-508); assay: Forskolin induced organoid swelling (FIS) assay; format: cell-based; conditions: F508del homozygous intestinal organoids, lentiviral Nb, 3 μM VX-809 24 h before, Fsk and 3 μM VX-770, 2 h
T1 construct: expressed in transfected cells
T1 sequence (P13569 with tags, fused parts or gaps DEL508-508): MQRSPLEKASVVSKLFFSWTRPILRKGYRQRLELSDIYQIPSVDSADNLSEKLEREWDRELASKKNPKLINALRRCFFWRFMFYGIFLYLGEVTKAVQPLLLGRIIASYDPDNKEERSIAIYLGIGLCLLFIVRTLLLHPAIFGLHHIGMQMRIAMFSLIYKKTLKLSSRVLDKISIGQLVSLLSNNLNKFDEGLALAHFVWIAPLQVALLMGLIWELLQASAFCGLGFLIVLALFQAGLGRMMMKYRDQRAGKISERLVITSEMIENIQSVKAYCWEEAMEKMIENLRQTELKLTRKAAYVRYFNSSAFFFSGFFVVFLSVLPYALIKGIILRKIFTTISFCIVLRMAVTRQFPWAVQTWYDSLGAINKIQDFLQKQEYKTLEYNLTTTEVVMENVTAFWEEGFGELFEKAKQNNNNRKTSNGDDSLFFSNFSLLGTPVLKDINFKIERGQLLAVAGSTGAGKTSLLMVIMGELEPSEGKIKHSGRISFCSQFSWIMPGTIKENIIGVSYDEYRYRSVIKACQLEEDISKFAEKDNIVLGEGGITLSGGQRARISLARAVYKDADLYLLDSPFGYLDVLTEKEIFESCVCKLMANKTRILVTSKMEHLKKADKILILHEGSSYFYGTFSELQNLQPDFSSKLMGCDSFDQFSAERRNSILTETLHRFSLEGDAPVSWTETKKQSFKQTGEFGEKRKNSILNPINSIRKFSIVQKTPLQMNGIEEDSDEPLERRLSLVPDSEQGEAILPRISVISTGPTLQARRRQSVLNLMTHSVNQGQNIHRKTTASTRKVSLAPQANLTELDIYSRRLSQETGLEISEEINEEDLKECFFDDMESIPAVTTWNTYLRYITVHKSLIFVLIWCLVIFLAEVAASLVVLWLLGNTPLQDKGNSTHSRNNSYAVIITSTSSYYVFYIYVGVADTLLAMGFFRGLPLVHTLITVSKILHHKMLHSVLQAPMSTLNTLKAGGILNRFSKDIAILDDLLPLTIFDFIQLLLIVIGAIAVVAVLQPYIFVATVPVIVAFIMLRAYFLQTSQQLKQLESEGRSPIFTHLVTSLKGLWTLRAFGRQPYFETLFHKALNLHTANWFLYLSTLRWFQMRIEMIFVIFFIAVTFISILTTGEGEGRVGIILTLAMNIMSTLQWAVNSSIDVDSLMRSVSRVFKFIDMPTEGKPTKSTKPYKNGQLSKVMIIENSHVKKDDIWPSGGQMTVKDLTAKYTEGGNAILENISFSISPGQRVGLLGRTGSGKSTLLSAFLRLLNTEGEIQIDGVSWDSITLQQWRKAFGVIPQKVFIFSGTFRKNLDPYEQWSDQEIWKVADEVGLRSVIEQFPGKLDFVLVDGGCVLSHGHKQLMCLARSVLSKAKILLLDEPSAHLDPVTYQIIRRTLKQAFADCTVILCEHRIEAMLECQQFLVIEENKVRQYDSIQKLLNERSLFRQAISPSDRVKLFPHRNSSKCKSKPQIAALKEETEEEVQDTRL
Text: Intestinal organoids are 3D epithelial structures grown from a single Lgr5+ stem cell (originating from the crypts of the GI-tract) with an internal lumen that recapitulates key features of the intestinal tissue architecture. When differentiated, the organoids form villus and crypt-like structures. CFTR is located at the apical membrane lining the internal lumen and its activation leads to rapid organoid swelling, in direct correlation with the amount of functional CFTR. This model system thus provides a physiologically relevant assay to evaluate the potential of new therapies with high translational value. CF patient-derived organoids expressing F508del-CFTR from two alleles were transduced with lentiviral vectors encoding the sequence of either a stabilizing nanobody (T2a) or a control nanobody. 24 h before FIS assay, corrector 3 μM VX-809 or DMSO was added. Organoids were stimulated by Fsk (0,8 μM) and 3 μM VX-770 just before FIS. […]
Transduction of human intestinal organoids was performed as described previously (Vidovic, Carlon et al. 2016, Ensinck, De Keersmaecker et al. 2020). […] Organoids were stimulated with forskolin (5 μM) and VX-770 (3 μM) or DMSO, and analyzed by confocal live cell microscopy at 37° C. for 120 min (LSM800, Zeiss, Zen Blue). The total organoid area increase relative to t=0 of forskolin treatment was quantified.

[2] = biological target: T2, stab-CFTR: 2PT/ΔRI/R1048A_1172X (Homo sapiens, UniProt P13569, A534P/DEL405-436/I539T/R1048A/S492P); assay: NanoDSF thermostability of stab-CFTR; format: binding; conditions: versus stab-CFTR alone
T2 construct: made in house; host or cells: BHK-21 cells (ATCC CCL-10), pNUT vector
T2 sequence (P13569 with tags, fused parts or gaps DEL405-436/S492P/A534P/I539T/R1048A limits assumed): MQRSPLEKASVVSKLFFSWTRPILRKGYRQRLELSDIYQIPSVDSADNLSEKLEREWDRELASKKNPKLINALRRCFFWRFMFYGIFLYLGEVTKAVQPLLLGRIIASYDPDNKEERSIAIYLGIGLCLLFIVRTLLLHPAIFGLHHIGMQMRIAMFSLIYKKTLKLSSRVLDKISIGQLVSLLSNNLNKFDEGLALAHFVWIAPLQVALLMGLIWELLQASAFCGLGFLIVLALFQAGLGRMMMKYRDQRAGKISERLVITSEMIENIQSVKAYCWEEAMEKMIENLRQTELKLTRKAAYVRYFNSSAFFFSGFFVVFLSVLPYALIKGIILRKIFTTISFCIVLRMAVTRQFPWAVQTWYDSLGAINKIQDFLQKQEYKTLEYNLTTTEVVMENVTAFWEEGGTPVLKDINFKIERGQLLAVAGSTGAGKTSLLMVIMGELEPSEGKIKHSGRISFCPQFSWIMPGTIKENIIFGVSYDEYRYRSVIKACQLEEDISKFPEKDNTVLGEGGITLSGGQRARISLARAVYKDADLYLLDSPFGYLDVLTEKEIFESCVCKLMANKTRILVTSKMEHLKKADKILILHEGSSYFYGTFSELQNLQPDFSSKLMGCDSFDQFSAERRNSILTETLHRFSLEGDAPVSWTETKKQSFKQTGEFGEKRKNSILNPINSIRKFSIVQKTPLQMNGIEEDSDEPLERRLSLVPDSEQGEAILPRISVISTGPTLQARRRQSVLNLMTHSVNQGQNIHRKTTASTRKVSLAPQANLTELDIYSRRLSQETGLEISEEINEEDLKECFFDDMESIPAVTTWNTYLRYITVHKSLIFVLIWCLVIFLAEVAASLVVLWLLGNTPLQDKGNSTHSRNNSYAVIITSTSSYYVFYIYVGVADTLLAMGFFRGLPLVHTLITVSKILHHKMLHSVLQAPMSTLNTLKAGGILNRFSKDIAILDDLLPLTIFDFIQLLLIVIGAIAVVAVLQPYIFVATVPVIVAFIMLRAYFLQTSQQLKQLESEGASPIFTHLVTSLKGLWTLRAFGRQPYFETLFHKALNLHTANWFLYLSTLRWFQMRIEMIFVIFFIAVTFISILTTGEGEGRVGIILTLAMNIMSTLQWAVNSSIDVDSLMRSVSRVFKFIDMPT
Method: Purified stabilized human CFTR (stab-CFTR: 2PT/ΔRI/R1048A_1172X) was concentrated to 0.5 mg/ml and mixed with 0.1 mg/ml nanobody (^˜[…]) and capillaries were loaded with a volume of 10 The capillaries were placed into trays of Prometheus NT.48 (Nanotemper) and subjected to the fluorescence analysis. The emission of fluorescent radiation with the wavelengths of 330 nm and 350 nm was measured with the temperature changes from 25 to 85° C., with the rate of 1° C. min-1. The first derivative of 350 nm fluorescence was used to determine the melting temperature of the proteins.

B1: T2a: NBD1-specific CFTR-stabilizing nanobody, SEQ ID NO:3, binds epitope 1 (protein)
VHH: QVQLQESGGGLVQAGGSLRLSCAASGSIFRIDAMGWYRQAPGKQRELVAHSTSGGSTDYADSVKGRFTISRDNAKNTVYLQMNSLKPEDTAVYYCNADVRTRWYASNNYWGQGTQVTVSS
modifications: T2a Nanobody amino acid sequence
[1]
  CFTR response (relative increase in organoid surface area): significantly increased CFTR functionality over time
[2]
  thermostabilization of stab-CFTR (Tm increase): 8 °C
